Source: patent US7211424B1, “Mammalian Subtilisin/kexin isozyme SKI-1: a proprotein convertase with a unique cleavage specificity” (Institut de Recherches Cliniques de Montreal, priority 1999, dated 2007)
Where two headings read alike, the source gives them in different places. Where no end group is shown, it is not given here. [ ]: non-standard residue; d: D form. Tyr(3-NO2) = N[C@@H](Cc1ccc(O)c([N+](=O)[O-])c1)C(=O)O; 2Abz = Nc1ccccc1C(=O)O

Columns and labels:
[1] = test system: endogenous furin-like enzyme(s); test: Ex vivo proBDNF processing in COS-7 cells: 14 kDa BDNF; type: cell-based
SKI-1 = target: T1, SKI-1 (Homo sapiens, UniProt Q14703); type: cell-based; design: The VV recombinant of full-length hSKI-1 has been described (10); expressed in transfected cells; host or cells: COS-7 cells co-infected with vv:BDNF and vv:SKI-1 (with vv:WT, vv:PIT or vv:PDX)
T1 sequence (Q14703 187-1052): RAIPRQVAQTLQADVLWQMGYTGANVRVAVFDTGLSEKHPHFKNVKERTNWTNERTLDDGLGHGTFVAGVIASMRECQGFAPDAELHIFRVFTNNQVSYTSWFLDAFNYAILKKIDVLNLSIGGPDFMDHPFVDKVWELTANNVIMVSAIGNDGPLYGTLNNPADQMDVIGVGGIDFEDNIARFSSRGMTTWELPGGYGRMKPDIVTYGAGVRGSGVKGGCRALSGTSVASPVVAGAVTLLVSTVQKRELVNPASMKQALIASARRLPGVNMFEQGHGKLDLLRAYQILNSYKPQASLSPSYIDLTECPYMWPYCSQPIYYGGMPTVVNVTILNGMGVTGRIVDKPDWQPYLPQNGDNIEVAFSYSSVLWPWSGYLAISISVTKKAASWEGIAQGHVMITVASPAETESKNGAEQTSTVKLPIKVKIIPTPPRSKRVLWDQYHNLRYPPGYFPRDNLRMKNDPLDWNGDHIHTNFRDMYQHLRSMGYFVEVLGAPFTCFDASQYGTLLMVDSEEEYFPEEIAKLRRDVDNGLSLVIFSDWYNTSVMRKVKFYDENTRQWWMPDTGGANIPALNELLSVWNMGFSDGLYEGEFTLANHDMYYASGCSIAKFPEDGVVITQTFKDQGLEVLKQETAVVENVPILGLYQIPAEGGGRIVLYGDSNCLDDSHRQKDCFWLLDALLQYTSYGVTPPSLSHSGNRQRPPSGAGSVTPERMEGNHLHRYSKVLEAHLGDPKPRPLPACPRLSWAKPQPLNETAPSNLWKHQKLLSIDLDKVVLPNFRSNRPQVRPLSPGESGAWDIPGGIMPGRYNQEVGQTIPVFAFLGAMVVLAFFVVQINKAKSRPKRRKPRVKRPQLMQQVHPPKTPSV

BTMD-SKI-1 [2] = target: T2, BTMD-SKI-1 (Homo sapiens, UniProt Q14703); test: pH optimum and calcium dependence of peptide cleavage by BTMD-SKI-1; type: biochemical
T2 sequence (Q14703 187-997 limits assumed): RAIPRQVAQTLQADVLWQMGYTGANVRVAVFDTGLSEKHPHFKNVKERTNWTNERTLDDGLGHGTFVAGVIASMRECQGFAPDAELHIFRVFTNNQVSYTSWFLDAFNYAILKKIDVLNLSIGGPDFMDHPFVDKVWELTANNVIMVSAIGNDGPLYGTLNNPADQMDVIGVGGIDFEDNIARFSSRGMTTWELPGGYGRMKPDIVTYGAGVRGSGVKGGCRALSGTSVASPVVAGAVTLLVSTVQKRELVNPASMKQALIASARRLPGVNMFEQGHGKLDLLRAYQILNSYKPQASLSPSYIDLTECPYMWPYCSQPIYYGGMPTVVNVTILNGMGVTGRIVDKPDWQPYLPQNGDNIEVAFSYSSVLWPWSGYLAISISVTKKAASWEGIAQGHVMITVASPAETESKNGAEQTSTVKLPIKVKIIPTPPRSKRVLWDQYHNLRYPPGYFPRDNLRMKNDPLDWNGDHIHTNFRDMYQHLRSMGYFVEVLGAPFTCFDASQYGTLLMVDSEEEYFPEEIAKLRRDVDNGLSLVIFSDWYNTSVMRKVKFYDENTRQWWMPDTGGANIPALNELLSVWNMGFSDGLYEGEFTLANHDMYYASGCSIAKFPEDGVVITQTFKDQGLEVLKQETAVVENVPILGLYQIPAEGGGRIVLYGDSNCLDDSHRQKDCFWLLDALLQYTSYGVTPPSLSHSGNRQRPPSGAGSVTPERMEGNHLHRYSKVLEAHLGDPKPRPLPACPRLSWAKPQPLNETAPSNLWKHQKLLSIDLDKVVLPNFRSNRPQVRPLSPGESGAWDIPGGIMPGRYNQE
T2 sequence (Q14703 17-137 partner limits assumed): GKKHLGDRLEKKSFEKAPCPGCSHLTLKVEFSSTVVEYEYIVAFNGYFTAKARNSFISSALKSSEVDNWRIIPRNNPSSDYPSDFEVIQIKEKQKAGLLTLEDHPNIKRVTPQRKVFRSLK
Experimental: pH Optimum, Calcium-Dependence and Inhibitor Profile—The protocols used were essentially the same as reported previously (13). Stocks of the buffer described above were adjusted to pH 5.0–8.5 at 0.5 unit increments by addition of either acetic acid or sodium hydroxide. In order to investigate the calcium requirement of SKI-1, increasing concentrations of Ca^2+-acetate were used ranging from 0 to 10 mM.

BTMD-SKI-1 [3] = target: T3, BTMD-SKI-1 (human, UniProt Q14703 187-997); test: Ki(app) from Dixon plots; inhibition of peptide IV hydrolysis by BTMD-SKI-1 medium (RP-HPLC), prosegment preincubated with the enzyme for 30 min
T3 construct: The construct encodes aa 1-997 plus hexa-His; It was secreted from VV-infected BSC40 or LoVo cells and used as concentrated medium or after metal chelation purification; The secreted enzyme stays associated with the ~14 kDa prosegment fragment; also called bSKI-1; BTMD-hSKI-1
T3 sequence: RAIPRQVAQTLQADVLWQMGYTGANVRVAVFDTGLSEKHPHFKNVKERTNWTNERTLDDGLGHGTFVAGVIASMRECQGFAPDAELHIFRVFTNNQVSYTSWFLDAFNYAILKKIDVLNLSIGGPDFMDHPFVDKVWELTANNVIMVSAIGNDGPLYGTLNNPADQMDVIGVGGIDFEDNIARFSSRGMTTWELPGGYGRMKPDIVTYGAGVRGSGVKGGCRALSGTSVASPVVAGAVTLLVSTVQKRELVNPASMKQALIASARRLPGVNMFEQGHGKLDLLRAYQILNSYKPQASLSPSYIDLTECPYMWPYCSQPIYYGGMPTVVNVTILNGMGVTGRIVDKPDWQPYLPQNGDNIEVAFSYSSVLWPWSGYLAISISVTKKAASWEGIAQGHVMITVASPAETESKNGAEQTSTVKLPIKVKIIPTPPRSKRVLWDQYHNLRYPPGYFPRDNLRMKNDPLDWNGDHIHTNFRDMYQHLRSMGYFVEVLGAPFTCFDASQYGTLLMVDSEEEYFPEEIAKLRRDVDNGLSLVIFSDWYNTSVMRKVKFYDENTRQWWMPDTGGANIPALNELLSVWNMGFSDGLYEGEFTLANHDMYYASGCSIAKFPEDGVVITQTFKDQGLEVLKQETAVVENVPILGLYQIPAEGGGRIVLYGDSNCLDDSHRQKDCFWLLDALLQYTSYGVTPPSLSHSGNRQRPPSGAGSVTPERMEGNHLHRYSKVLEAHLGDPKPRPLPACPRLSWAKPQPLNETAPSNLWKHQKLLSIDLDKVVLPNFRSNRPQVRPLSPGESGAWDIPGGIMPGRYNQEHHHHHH

[4] = target: T4, 98 kDa shed form of SKI-1 (sSKI-1) (human, UniProt Q14703 187-996); test: cell-based or functional assay
T4 sequence: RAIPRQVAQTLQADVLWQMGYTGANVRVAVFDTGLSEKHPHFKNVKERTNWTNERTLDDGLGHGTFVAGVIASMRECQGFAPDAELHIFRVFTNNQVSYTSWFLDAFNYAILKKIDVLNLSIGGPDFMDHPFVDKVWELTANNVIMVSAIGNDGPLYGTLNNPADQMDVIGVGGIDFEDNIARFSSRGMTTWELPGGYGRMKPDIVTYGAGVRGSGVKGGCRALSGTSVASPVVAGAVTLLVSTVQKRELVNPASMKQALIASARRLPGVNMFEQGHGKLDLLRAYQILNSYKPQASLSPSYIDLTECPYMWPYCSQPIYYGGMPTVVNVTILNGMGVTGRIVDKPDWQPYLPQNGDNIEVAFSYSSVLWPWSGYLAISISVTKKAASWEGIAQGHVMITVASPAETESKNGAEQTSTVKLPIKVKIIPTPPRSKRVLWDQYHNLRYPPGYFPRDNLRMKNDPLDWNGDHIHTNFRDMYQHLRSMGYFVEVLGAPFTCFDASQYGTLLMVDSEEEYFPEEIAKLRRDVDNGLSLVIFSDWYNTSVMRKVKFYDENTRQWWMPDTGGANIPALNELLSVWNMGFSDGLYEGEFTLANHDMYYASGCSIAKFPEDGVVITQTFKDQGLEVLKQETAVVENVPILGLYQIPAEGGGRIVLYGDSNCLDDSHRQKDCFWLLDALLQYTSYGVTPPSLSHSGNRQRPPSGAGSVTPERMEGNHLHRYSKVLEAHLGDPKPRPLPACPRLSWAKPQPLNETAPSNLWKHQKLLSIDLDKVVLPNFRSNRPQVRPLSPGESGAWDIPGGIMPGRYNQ

BTMD-hSKI-1 = target: T5, BTMD-hSKI-1 (Homo sapiens, UniProt Q14703); type: biochemical
T5 sequence (Q14703 187-997 limits assumed): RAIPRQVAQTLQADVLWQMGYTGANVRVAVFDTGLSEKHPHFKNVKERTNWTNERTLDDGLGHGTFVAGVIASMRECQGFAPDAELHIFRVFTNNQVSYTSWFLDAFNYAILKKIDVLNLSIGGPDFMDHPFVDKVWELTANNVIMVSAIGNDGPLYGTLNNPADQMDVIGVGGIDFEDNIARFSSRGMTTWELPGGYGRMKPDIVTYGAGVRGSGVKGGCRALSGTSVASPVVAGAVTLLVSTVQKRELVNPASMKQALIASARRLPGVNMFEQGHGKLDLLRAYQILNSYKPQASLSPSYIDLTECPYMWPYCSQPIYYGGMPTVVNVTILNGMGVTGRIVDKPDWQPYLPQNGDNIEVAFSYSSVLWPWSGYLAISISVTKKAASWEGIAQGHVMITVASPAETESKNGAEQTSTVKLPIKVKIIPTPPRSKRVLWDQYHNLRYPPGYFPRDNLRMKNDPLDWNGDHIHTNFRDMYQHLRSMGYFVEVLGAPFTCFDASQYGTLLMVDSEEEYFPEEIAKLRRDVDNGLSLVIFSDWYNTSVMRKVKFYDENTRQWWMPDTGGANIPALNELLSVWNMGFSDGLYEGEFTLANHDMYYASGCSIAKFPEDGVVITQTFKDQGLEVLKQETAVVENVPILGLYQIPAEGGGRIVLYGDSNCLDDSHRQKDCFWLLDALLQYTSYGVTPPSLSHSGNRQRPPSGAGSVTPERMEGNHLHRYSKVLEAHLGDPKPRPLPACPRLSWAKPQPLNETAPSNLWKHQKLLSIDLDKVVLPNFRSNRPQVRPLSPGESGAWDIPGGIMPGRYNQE

[5] = COS-7 cells co-expressing proBDNF and SKI-1

Molecule: α1-antitrypsin Portland [α1-PDX]
- production of the 14 kDa BDNF [1]: selectively blocks the production of the 14 kDa BDNF
- level of the 28 kDa BDNF product (SKI-1): neither α1-PIT nor α1-PDX affect the level of the 28 kDa product

Molecule: KAGSRGLTSLADTF [I]
- activity retained (BTMD-SKI-1 [2]; at pH 5.0): about 30%
- activity retained (BTMD-SKI-1 [2]; at pH 8.5): ~55%

Molecule: CNc1ccc2oc(C[C@H]3O[C@@]4(CC[C@H]3C)O[C@H]([C@H](C)C(=O)c3ccc[nH]3)[C@H](C)C[C@H]4C)nc2c1C(=O)O [Peptide A23187]
- production of the 14 kDa BDNF [1, 5]: abolished
- level of the 28 kDa BDNF product (SKI-1; [5]): abolished

B1: PS3 (SKI-1 prosegment construct extending to Leu197, hexa-His tag) (other)
chain: KKHLGDRLEKKSFEKAPCPGCSHLTLKVEFSSTVVEYEYIVAFNGYFTAKARNSFISSALKSSEVDNWRIIPRNNPSSDYPSDFEVIQIKEKQKAGLLTLEDHPNIKRVTPQRKVFRSLKYAESDPTVPCNETRWSQKWQSSRPLRRASLSLGSGFWHATGRHSSRRLLRAIPRQVAQTLHHHHHH
notes: Bacterial recombinant (pET24b, E. coli BL21); Any vector-derived residues are not described
- Ki (BTMD-SKI-1 [3]): 127 nM

B2: peptide XI, Q-hSKI-1 (134-142): Abz-RSLKYAESD-Y(NO2)-A (peptide)
peptide: [2Abz]RSLKYAESD[Tyr(3-NO2)]A-NH2
modifications: N-terminus assumed
SMILES: CC(C)C[C@H](NC(=O)[C@H](CO)NC(=O)[C@H](CCCNC(=N)N)NC(=O)c1ccccc1N)C(=O)N[C@@H](CCCCN)C(=O)N[C@@H](Cc1ccc(O)cc1)C(=O)N[C@@H](C)C(=O)N[C@@H](CCC(=O)O)C(=O)N[C@@H](CO)C(=O)N[C@@H](CC(=O)O)C(=O)N[C@@H](Cc1ccc(O)c([N+](=O)[O-])c1)C(=O)N[C@@H](C)C(N)=O
- kinetic parameters relative to peptide IV [4]: ~16 fold

B3: PS2 (SKI-1 prosegment construct extending to Ala188, hexa-His tag) (other)
chain: KKHLGDRLEKKSFEKAPCPGCSHLTLKVEFSSTVVEYEYIVAFNGYFTAKARNSFISSALKSSEVDNWRIIPRNNPSSDYPSDFEVIQIKEKQKAGLLTLEDHPNIKRVTPQRKVFRSLKYAESDPTVPCNETRWSQKWQSSRPLRRASLSLGSGFWHATGRHSSRRLLRAHHHHHH
notes: Bacterial recombinant (pET24b, E. coli BL21); The start at aa 18 follows the sense primer and claim 3; Any vector-derived residues are not described
- inhibitory potency after digestion with carboxypeptidase B to eliminate the His-tag (BTMD-hSKI-1): not affected
- Ki (BTMD-hSKI-1; read-out: Ki(app)): 97 nM
- Ki (BTMD-SKI-1 [3]): 97.5 nM

B4: peptide X, Q-hSKI-1 (132-142): Abz-VFRSLKYAESD-Y(NO2)-A (peptide)
peptide: [2Abz]VFRSLKYAESD[Tyr(3-NO2)]A-NH2
modifications: N-terminus assumed
SMILES: CC(C)C[C@H](NC(=O)[C@H](CO)NC(=O)[C@H](CCCNC(=N)N)NC(=O)[C@H](Cc1ccccc1)NC(=O)[C@@H](NC(=O)c1ccccc1N)C(C)C)C(=O)N[C@@H](CCCCN)C(=O)N[C@@H](Cc1ccc(O)cc1)C(=O)N[C@@H](C)C(=O)N[C@@H](CCC(=O)O)C(=O)N[C@@H](CO)C(=O)N[C@@H](CC(=O)O)C(=O)N[C@@H](Cc1ccc(O)c([N+](=O)[O-])c1)C(=O)N[C@@H](C)C(N)=O
- kinetic parameters relative to peptide IV [4]: ~3 fold
